From paper PMC5615076, “Prolonged seizure activity causes caspase dependent cleavage and dysfunction of G-protein activated inwardly rectifying potassium channels” (Scientific Reports, 2017)

Target: T1, Gβ1γ2 tagged with yellow fluorescent proteins (YFP-Gβ1 and YFP-Gγ2) (UniProt P62873 1-340; P59768 1-71)
T1 construct: G protein subunit beta-1 (Gβ1), from plasmid pcDNA3.1-YFP-G-protein Gβ1 (gift of N. Gautam); G protein subunit gamma-2 (Gγ2), from plasmid pcDNA3.1-YFP-G-protein-Gγ2 (gift of N. Gautam); Both chains co-expressed and precipitated together with anti-GFP antibodies; also called Gβγ; source: HEK293T, transfected (pcDNA3.1-YFP-G-protein Gβ1 and pcDNA3.1-YFP-G-protein-Gγ2), in lysate
Experiment: co-IP; HEK293T cells co-transfected with YFP-Gβ1, YFP-Gγ2 and GIRK2A WT or Y353X (doubled plasmid for Y353X); IP 24 h after transfection with mouse anti-GFP antibodies and Protein A/G agarose; blot with anti-GIRK2 N-terminal antibodies; band ratio GIRK2A/YFP-Gβ1 normalised to GIRK2A WT
Conditions: partners not purified

B1: GIRK2A-Y353X (domain or fragment)
chain: MTMAKLTESMTNVLEGDSMDQDVESPVAIHQPKLPKQARDDLPRHISRDRTKRKIQRYVRKDGKCNVHHGNVRETYRYLTDIFTTLVDLKWRFNLLIFVMVYTVTWLFFGMIWWLIAYIRGDMDHIEDPSWTPCVTNLNGFVSAFLFSIETETTIGYGYRVITDKCPEGIILLLIQSVLGSIVNAFMVGCMFVKISQPKKRAETLVFSTHAVISMRDGKLCLMFRVGDLRNSHIVEASIRAKLIKSKQTSEGEFIPLNQSDINVGYYTGDDRLFLVSPLIISHEINQQSPFWEISKAQLPKEELEIVVILEGIVEATGMTCQARSSYITSEILWGYRFTPVLTMEDGFYEVD
notes: GIRK2A (Kir3.2, cDNA NM_010606.2) with Y353 mutated to a stop codon, so the chain ends at D352 of the 349YEVD352 motif; mimics GIRK2A cleaved by caspase-3; Untagged; made by QuikChange mutagenesis of pcDNA3-GIRK2A; also called GIRK2-Y353X; truncated GIRK2A-Y353X; source: HEK293T, transfected (FuGENE6, pcDNA3-GIRK2A Y353X, doubled amount of plasmid), in lysate
For B1, the “coimmunoprecipitation, % of wild-type GIRK2A” value was 50 % of wild-type GIRK2A.
